Experiment in all cases: multiplex microsphere immunoassay
Test [1] concerns the target T1, GII.6 VLP (norovirus Hu/GII.6/Ehime120246/2012/JP).
T1 construct: also called Hu/GII.6/Ehime120246/2012/JP
T1 chain: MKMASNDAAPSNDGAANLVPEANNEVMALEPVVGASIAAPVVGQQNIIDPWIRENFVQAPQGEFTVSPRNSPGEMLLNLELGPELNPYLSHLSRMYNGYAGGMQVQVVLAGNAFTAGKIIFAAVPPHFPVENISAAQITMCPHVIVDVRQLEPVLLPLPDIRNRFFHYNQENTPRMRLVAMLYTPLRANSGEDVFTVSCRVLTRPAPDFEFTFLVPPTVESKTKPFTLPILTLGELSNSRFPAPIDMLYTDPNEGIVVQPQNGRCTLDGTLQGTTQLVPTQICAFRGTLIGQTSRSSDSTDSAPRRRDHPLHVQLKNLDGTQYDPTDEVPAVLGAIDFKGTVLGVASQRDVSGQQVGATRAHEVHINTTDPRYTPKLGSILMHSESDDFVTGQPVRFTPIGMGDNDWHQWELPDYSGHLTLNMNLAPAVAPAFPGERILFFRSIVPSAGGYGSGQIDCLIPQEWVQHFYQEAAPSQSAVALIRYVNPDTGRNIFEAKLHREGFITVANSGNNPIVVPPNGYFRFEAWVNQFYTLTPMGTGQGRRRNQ

Test [2] has as its target T2, GII.7 VLP (norovirus Hu/GII.7/NSW088L/2007/AUS).
T2 construct: also called Hu/GII.7/NSW088L/2007/AUS
T2 chain: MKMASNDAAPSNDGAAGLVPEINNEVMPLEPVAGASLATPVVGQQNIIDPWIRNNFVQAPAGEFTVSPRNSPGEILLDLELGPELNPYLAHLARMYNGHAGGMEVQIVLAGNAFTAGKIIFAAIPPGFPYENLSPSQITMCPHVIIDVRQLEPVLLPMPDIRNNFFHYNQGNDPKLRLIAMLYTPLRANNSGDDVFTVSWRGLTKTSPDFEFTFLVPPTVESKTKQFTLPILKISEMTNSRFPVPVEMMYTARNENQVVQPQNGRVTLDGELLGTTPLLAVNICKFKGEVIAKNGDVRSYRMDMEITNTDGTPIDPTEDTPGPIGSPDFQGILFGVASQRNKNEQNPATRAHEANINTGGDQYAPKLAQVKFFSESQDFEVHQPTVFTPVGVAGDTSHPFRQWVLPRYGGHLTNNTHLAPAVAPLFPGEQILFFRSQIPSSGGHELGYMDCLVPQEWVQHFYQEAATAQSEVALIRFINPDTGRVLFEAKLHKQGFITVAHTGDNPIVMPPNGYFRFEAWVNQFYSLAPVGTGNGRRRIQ

For test [3], the target named is T3, GII.4/Consensus VLP (norovirus GII.4 consensus sequence, UniProt P54635 1-539).
T3 chain: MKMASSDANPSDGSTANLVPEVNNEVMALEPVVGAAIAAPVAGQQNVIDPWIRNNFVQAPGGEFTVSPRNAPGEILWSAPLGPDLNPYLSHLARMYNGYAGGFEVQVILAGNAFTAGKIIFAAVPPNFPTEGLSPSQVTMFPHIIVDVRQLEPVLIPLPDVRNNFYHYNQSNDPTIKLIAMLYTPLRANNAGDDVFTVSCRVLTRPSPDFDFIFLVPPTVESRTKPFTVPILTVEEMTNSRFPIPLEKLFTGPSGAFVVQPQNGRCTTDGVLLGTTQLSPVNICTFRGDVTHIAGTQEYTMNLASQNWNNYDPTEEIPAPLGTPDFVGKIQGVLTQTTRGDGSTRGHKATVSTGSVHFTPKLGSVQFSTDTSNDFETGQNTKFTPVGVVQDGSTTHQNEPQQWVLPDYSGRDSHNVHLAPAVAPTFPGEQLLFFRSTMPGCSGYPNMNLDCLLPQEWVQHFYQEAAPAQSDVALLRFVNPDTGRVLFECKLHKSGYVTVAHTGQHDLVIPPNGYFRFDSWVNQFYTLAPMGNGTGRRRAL

Test [4] deals with T4, GII.2 VLP (norovirus Hu/GII.2/OH10026/2010/JP).
T4 chain: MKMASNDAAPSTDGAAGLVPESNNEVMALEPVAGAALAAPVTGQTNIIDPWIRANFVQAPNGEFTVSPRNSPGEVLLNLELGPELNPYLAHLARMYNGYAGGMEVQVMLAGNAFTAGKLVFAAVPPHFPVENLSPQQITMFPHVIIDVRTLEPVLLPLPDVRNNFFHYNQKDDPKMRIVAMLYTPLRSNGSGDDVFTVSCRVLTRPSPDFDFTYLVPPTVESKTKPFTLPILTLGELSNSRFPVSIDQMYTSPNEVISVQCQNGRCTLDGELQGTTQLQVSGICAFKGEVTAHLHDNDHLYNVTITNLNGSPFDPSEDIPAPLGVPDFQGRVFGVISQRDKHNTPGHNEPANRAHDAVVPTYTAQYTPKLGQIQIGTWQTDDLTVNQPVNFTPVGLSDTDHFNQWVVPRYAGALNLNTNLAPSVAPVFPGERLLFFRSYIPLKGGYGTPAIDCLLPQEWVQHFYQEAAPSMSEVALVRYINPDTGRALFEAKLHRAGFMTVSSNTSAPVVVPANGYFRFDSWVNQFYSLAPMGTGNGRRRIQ

For test [5], the target named is T5, GII.12 VLP (norovirus Hu/GII.12 strain E5152).
T5 construct: also called Hu/GII.12 strain E5152
T5 chain: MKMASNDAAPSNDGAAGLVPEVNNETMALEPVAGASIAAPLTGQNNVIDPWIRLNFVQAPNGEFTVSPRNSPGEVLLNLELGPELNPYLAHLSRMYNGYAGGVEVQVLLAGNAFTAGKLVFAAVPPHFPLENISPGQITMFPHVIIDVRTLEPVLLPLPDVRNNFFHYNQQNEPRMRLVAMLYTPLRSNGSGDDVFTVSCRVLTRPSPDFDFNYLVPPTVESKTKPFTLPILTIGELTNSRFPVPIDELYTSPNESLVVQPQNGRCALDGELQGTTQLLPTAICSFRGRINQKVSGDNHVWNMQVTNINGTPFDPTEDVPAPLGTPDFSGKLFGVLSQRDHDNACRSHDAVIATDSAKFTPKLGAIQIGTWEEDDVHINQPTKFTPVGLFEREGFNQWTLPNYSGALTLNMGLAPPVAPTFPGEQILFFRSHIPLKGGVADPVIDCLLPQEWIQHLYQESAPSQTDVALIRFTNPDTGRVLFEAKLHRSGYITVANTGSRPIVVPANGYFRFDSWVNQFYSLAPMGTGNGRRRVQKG

B1: human mAb 1431 (antibody, V domains shown)
VH: QVQLVQSGGGLVQPGGSLRLSCAASGFAFSNHGMHWVRQAPGKGLEWLSYISGSTGAIHYANSVKGRFTISRDNARNSLDLQMNSLGDEDTAVYYCARDGPRPDGTGYAGPSNDYWGQGTLVSVSS
VL: EIVLTQSPASLSLSPGERATLSCKASRSISIYLAWYQQKPGQAPRLLIYDASYRAIGIPARFSGSGSGTDFTLTISNLEPEDFAVYYCQHRSSWPALTFGGGTKVEI
notes: also called A1431
By EC50 is commonly meant the midpoint of the concentration-response curve. Low values mean greater potency, high ones weaker potency. Consider B1, for which the binding result in test [1], in test [2], in test [4] and in test [5] was “no binding” each time. A half-maximal response in test [3] (EC50) required 0.07 µg/mL.

B2: human mAb 1227 (antibody, V domains shown)
VH: QVQLVQSGGGMVQPGGSLSLSCAASGFTLSNYAMTWVRQAPGKGLEWVSSIGGSGGTTYYADSVKGRFTISRDSSMNTLYLQMSNLRAGDTAVYYCAKDKTRTLRLGYSGMDVWGQGTTVTVSS
VL: DIRLTQSPSSLSASVGDRVTITCRASQSISSYLNWYQQKPGKAPDLLIYGASSLQSGVPSRFSGSGSGTDFTLTISSLQPEDFGNYYCQQSFSTPRTFGQGTKVEL
notes: also called A1227
Take B2: the EC50 amounted to 0.071 µg/mL in test [1]; 0.009 µg/mL in test [2]; 0.216 µg/mL in test [3]; 0.105 µg/mL in test [4]; 0.026 µg/mL in test [5].

These data come from patent publication US20240402174A1 (Takeda / Millennium, published 2024).
